# Results published in article PMC7876137, “Functional and structural characterization of a flavoprotein monooxygenase essential for biogenesis of tryptophylquinone cofactor” (Nature Communications, 2021).
# Positions count from the first letter of the chain named. Names may count otherwise.
# T1: linear QhpC (nascent QhpC polypeptide with the 28-residue leader peptide and a C-terminal Twin-Strep tag, … (Pseudomonas putida IFO 15366 (NBRC …)))
# T1 construct: also called QhpC-St2; source: E. coli C41 (DE3), co-expressed with His6-QhpD; QhpCD complex purified (HisTrap, Strep trap); QhpD removed by heat denaturation (60 °C, 20 min) before the QhpD-catalyzed reaction; not shown: Twin-Strep (St2), C-terminal, kept
# T1 chain: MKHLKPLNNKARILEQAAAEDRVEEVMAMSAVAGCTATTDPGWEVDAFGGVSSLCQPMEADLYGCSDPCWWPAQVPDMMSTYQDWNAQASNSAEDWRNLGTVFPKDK
# T2: crosslinked QhpC (quinone-less QhpC with three intra-peptidyl thioether bonds, the 28-residue leader peptide … (Pseudomonas putida IFO 15366 (NBRC …, three intra-peptidyl Cys-to-Asp/Glu thioether bonds (Cys7-Glu16, Cys27-Asp33, Cys41-Asp49 as drawn in Supplementary Fig. 5); Cys37 and Trp43 free)
# T2 construct: source: E. coli C41 (DE3), co-expressed with His6-QhpD; QhpCD complex purified (HisTrap, Strep trap); QhpD removed by heat denaturation (60 °C, 20 min) after the QhpD-catalyzed thioether bond formation; not shown: Twin-Strep (St2), C-terminal, kept
# T2 chain: T1 chain
# B1: QhpG from Pseudomonas putida IFO 15366 (wild-type) (enzyme)
# chain: MAEPRIVVLGAGPAGAATAIGLRRLGYAVTVVSEWRRFAAVEGVSQRVLEGLRHVGLGGALRQAAMPATRQVHWNGQQLHLNQEFLLDRQRFDRALRDDLQRAGVSVVEGRVREVVRDVGHGIRLDDGQVLQADFLVEARGRQAPLAADRLRGPETVSLLNVWQAAPGAPASAVESLADGWAWMARLEDGRCYWQVTLDAAGLPGKAGLADYCAARRADSALVTELFDARALASAEVHARSSTAILAGECVGQDWIRVGDAAMAVDPLSGNGIFQSLSSALQAPVVINTLLRRPERAGLARQFHQQRIEQLFLRFARIGRDFYGQEQGRVGQPFWARRQGWPDMQALHVAADWSAVRVERRPVLRDGLVDEAEVVVTADQPLGVWHLQGVELAPAVRELQAGRPLEAVVSGLSGEQQRMVRRWLLEQGLV
# notes: Monomer by gel filtration; From the His6-TEV oligonucleotide, a few residues (G, H) may remain before Met1 after TEV cleavage; this is surmised; also called PpQhpG; peptidyl tryptophan dihydroxylase; source: E. coli C41 (DE3), purified (Ni-Sepharose FF, HisTrap HP; His6-tag removed with TEV protease, second HisTrap HP); not shown: His6, N-terminal, cleaved
# B2: QhpG R47A mutant (Pseudomonas putida) (enzyme)
# chain: B1 chain with R47A
# notes: R47A is still to be applied; source: E. coli C41 (DE3), purified (Ni-Sepharose FF, HisTrap HP; His6-tag removed with TEV protease, second HisTrap HP); not shown: His6, N-terminal, cleaved
# B3: QhpG W183F mutant (Pseudomonas putida) (enzyme)
# chain: B1 chain with W183F
# notes: W183F is still to be applied; source: E. coli C41 (DE3), purified (Ni-Sepharose FF, HisTrap HP; His6-tag removed with TEV protease, second HisTrap HP); not shown: His6, N-terminal, cleaved
# B4: QhpG R70A mutant (Pseudomonas putida) (enzyme)
# chain: B1 chain with R70A
# notes: R70A is still to be applied; source: E. coli C41 (DE3), purified (Ni-Sepharose FF, HisTrap HP; His6-tag removed with TEV protease, second HisTrap HP); not shown: His6, N-terminal, cleaved
# B5: QhpG R314A mutant (Pseudomonas putida) (enzyme)
# chain: B1 chain with R314A
# notes: R314A is still to be applied; source: E. coli C41 (DE3), purified (Ni-Sepharose FF, HisTrap HP; His6-tag removed with TEV protease, second HisTrap HP); not shown: His6, N-terminal, cleaved
# B6: QhpG E42A mutant (Pseudomonas putida) (enzyme)
# chain: B1 chain with E42A
# notes: E42A is still to be applied; source: E. coli C41 (DE3), purified (Ni-Sepharose FF, HisTrap HP; His6-tag removed with TEV protease, second HisTrap HP); not shown: His6, N-terminal, cleaved
# Molecular target: crosslinked QhpC (quinone-less QhpC of Ps. putida with three intra-peptidyl thioether bonds, the 28-residue leader peptide and a C-terminal Twin-Strep tag) (Pseudomonas putida IFO 15366 (NBRC 15366))
# Experiment: BLI; BLItz; QhpC immobilised through the St2-tag on streptavidin-coated biosensors, QhpG as analyte; 10 mM Tris-HCl, pH 7.4, 150 mM NaCl, 0.1% BSA, 0.02% Tween 20, 25 °C; global analysis
# Settings: not given
row,fold higher affinity (KD) than for linear QhpC [fold],Molecule
1,100,"QhpG from Pseudomonas putida (flavoprotein monooxygenase, peptidyl tryptophan dihydroxylase), tag-less wild type (enzyme)"

# Molecular target: T1, linear QhpC (nascent QhpC polypeptide …)
# Experiment: BLI; BLItz system; linear or crosslinked QhpC immobilised through the St2-tag on streptavidin-coated biosensors; QhpG as analyte; 10 mM Tris-HCl pH 7.4, 150 mM NaCl, 0.1% BSA, 0.02% Tween 20; 25 °C; reference with a ligand-free biosensor; global analysis
# Settings: both partners purified
Kd [nM],koff [s⁻¹],kon [M⁻¹ s⁻¹],Molecule
2800 ± 22,0.16,59000,B1

# Molecular target: T2, crosslinked QhpC (quinone-less QhpC …)
# Experiment: as above
# Settings: both partners purified
Kd [nM],koff [s⁻¹],kon [M⁻¹ s⁻¹],Molecule
28 ± 2.3,0.014,490000,B1
1500 ± 490,0.023,15000,B2
37 ± 19,0.013,360000,B3
48 ± 3.6,0.022,470000,B4
78 ± 28,0.011,140000,B5
65 ± 8.1,0.011,170000,B6
